What was measured:
recombinant hMCAM-His [1] = molecular target: T1, recombinant hMCAM-His (human, UniProt P43121 24-559); test: ForteBio Octet Red, hMCAM-His analyte; Expt. #1; vs rodent 2107
T1 construct: not shown: His tag
T1 chain: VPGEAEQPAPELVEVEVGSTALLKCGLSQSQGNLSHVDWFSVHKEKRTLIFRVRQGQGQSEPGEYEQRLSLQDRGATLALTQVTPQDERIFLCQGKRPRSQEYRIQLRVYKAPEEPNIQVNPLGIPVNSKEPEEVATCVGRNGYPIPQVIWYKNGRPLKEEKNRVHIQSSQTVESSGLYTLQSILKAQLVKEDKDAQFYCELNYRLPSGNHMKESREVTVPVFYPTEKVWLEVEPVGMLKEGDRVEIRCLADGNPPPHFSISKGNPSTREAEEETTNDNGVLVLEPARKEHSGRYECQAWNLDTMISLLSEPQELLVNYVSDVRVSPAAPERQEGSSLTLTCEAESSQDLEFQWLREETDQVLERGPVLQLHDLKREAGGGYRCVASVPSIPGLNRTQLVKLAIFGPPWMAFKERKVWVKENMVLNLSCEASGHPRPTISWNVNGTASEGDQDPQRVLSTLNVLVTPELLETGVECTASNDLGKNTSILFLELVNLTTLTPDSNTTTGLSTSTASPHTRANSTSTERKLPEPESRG
Protocol: (§1) The affinities were measured using the ForteBio Octet Red. Anti-human Fc sensors were used to capture the humanized antibodies, and several concentrations of hMCAMHis analyte were used to determine the affinity using a 1:1 fitting model.

recombinant hMCAM-His [2] = molecular target: T1, recombinant hMCAM-His; test: ForteBio Octet Red, hMCAM-His analyte; Expt. #2; vs rodent 2107
Protocol: as §1

recombinant hMCAM-His [3] = molecular target: T1, recombinant hMCAM-His; test: ForteBio Octet Red, hMCAM-His analyte; Forte column 1; vs rodent 2107
Protocol: as §1

recombinant hMCAM-His [4] = molecular target: T1, recombinant hMCAM-His; test: ForteBio Octet Red, hMCAM-His analyte; Forte column 2; vs rodent 2107
Protocol: as §1

[5] = molecular target: T2, human MCAM (melanoma cell adhesion molecule) expressed on transfected CHO cells (human, UniProt P43121 24-646); test: laminin/FACS on hMCAM CHO cells, competitor laminin 411; Expt#1; vs rodent 2107
T2 construct: also called hMCAM; CD146
T2 chain: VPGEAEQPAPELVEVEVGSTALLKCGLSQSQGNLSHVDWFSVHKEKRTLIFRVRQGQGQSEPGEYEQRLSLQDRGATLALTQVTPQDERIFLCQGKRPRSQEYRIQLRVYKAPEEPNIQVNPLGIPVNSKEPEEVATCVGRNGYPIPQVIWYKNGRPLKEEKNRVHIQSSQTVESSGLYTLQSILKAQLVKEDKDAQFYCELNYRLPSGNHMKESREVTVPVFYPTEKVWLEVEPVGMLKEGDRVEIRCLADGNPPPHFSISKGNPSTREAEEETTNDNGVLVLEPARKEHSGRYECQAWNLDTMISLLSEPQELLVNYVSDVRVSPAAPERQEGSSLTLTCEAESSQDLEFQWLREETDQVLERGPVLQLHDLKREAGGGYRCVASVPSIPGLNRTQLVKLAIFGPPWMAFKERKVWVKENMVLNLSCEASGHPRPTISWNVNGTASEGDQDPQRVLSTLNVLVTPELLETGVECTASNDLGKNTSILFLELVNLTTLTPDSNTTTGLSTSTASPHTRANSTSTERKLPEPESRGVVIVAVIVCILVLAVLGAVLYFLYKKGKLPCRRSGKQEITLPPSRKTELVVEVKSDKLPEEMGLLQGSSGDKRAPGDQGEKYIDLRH
Protocol: (§2) Following incubation for 30-45 minutes, the cells were washed and anti-laminin conjugated to AF650 (NovusBio) was added to detect the bound laminin. The cells were run on a flow cytometer to measure the laminin binding signal.

recombinant hMCAM-His [6] = molecular target: T1, recombinant hMCAM-His; test: competitive ELISA on hMCAM-His, competitor biotinylated rodent or chimeric 2107; vs rodent 2107
Protocol: (§3) ELISA plates were coated with recombinant hMCAM-His, and blocked with casein buffer to prevent non-specific binding. Biotinylated rodent or chimeric antibody was added at a subsaturating concentration, in the presence or absence of 3× increasing concentrations of unlabeled competitor (humanized antibody, rodent, or chimeric). After washing to remove unbound antibody, streptavidin HRP was added to allow detection of the biotinylated antibody. The ELISA was developed with TMB substrate and the OD450 was measured. The IC50 of the unlabeled competitor was determined using the GraphPad Prism5 software.

recombinant hMCAM-His [7] = molecular target: T1, recombinant hMCAM-His; test: competitive ELISA on hMCAM-His, competitor biotinylated rodent or chimeric 2107; Expt. #1; vs rodent 2107
Protocol: as §3

recombinant hMCAM-His [8] = molecular target: T1, recombinant hMCAM-His; test: competitive ELISA on hMCAM-His, competitor biotinylated rodent or chimeric 2107; Expt. #2; vs rodent 2107
Protocol: as §3

[9] = molecular target: T2, human MCAM (melanoma cell adhesion …); test: flow cytometry, human MCAM CHO cells preincubated with antibody, competitor recombinant human laminin 411 at 20 ug/ml
Protocol: The 87 independent mouse fusion clones and 26 independent rat fusion clones described in Example 10 above as being capable of (i) binding to human MCAM, and (ii) blocking the interaction between human MCAM and the α-4 chain of laminin were further characterized as follows. First, IC50 quantitation for the ability of the monoclonal antibody to block the binding of human MCAM to the α-4 chain of laminin was determined as follows. CHO cells expressing human MCAM were incubated with an anti-human MCAM antibody (at various concentrations) for 30 minutes at 4 degrees Celsius. […] Unbound laminin was then washed away, and the laminin bound to the surface of the cells was detected with fluorescently labeled anti-laminin antibodies. After washing, the amount of laminin bound to the surface was detected by flow cytometry, and IC50s were calculated based on the mean fluorescent intensity.
These six anti-MCAM monoclonal antibody clones are herein referred to as (i) the mouse anti-human MCAM monoclonal clones 1174.1.3, 1414.1.2, 1415.1.1, and 1749.1.3, and (ii) the rat anti-human MCAM monoclonal antibody clones 2120.4.19 and 2107.4.10. […] As such, each of these specific monoclonal antibodies was very capable of binding to human MCAM and inhibiting the interaction of cell-expressed human MCAM with its α-4 laminin binding ligand.

recombinant hMCAM-His [10] = molecular target: T1, recombinant hMCAM-His; test: ForteBio Octet Red, hMCAM-His analyte; Expt. #1; vs rodent 1749
Protocol: as §1

recombinant hMCAM-His [11] = molecular target: T1, recombinant hMCAM-His; test: ForteBio Octet Red, hMCAM-His analyte; Expt. #2; vs rodent 1749
Protocol: as §1

recombinant hMCAM-His [12] = molecular target: T1, recombinant hMCAM-His; test: summary of ForteBio and competitive ELISA on hMCAM-His; vs rodent 1749
Protocol: as §3, §1

recombinant hMCAM-His [13] = molecular target: T1, recombinant hMCAM-His; test: ForteBio Octet Red, hMCAM-His analyte; Forte column 1; vs rodent 1749
Protocol: as §1

[14] = molecular target: T2, human MCAM (melanoma cell adhesion …); test: laminin/FACS on hMCAM CHO cells, competitor laminin 411; Expt#1; vs rodent 1749
Protocol: as §2

[15] = molecular target: T2, human MCAM (melanoma cell adhesion …); test: laminin/FACS on hMCAM CHO cells, competitor laminin 411; Expt#2; vs rodent 1749
Protocol: as §2

[16] = molecular target: T2, human MCAM (melanoma cell adhesion …); test: summary of laminin blocking assay on hMCAM CHO cells, competitor laminin 411; vs rodent 1749
Protocol: as §2

recombinant hMCAM-His [17] = molecular target: T1, recombinant hMCAM-His; test: competitive ELISA on hMCAM-His, competitor biotinylated rodent or chimeric 1749; vs rodent 1749
recombinant hMCAM-His [18] = molecular target: T1, recombinant hMCAM-His; test: competitive ELISA on hMCAM-His, competitor biotinylated rodent or chimeric 1749; Expt. #1; vs rodent 1749
Protocol: as §3

recombinant hMCAM-His [19] = molecular target: T1, recombinant hMCAM-His; test: competitive ELISA on hMCAM-His, competitor biotinylated rodent or chimeric 1749; Expt. #2; vs rodent 1749
Protocol: as §3

[20] = molecular target: T2, human MCAM (melanoma cell adhesion …); test: laminin/FACS blocking assay, % inhibition of laminin 411 binding to hMCAM-expressing CHO cells against antibody concentration; blocked ligand: laminin 411
Protocol: as §2

recombinant hMCAM-His [21] = molecular target: T1, recombinant hMCAM-His; test: summary of ForteBio, hMCAM-His; vs rodent 2120
Protocol: as §1

recombinant hMCAM-His [22] = molecular target: T1, recombinant hMCAM-His; test: ForteBio Octet Red, hMCAM-His analyte; Expt. #1; vs rodent 2120
Protocol: as §1

recombinant hMCAM-His [23] = molecular target: T1, recombinant hMCAM-His; test: competitive ELISA on hMCAM-His, competitor biotinylated rodent or chimeric 2120; Expt. #1; vs rodent 2120
Protocol: as §3

B1: rat anti-human MCAM monoclonal antibody clone 2107.4.10 (antibody, V domains shown)
VH: QVQLKESGPGLVQSSQTLSLTCTVSGFSLTSNGVSWVRQPPGKGLEWIAAISSGGSTYYNSAFKSRLSISRNTSKSQVLLKMNSLQTEDTGMYFCARHRPFYFDYWGQGVMVTVSS
VL: DIQVTQSPSLLSASVGDRVTLNCKGSQNIYKSLAWFRLKRGEAPKLLIYDANSLQTGIPSRFSGSGSGTDFTLTITSLQPEDVATYFCQQYYSGYTFGAGTKLELK
notes: rat hybridoma antibody; elsewhere '83 or 84'); also called rodent 2107; murine 2107.4.10.18 anti-MCAM antibody
fold over rodent (Forte affinity) (recombinant hMCAM-His [1]): 1 fold | fold over rodent (Forte affinity) (recombinant hMCAM-His [2]): 1 fold | fold over rodent (Forte affinity) (recombinant hMCAM-His [3]): 1 fold | fold over rodent (Forte affinity) (recombinant hMCAM-His [4]): 1 fold | fold over rodent (blocking, laminin/FACS) [5]: 1 fold | fold over rodent (competitive ELISA) (recombinant hMCAM-His [6]): 1 fold | fold over rodent (competitive ELISA) (recombinant hMCAM-His [7]): 1 fold | fold over rodent (competitive ELISA) (recombinant hMCAM-His [8]): 1 fold | IC50 [9]: 0.29 µg/mL

B2: h1749VH2 + h1749VL2 (antibody, human IgG1, V domains shown)
VH: EVQLVESGGGLVQPGGSLRLSCAASGFTFSSYIMSWVRQAPGKRLEWVATISSGGSSTYYPDSVKGRFTISRDNAKNSLYLQMNSLRAEDTAVYYCTRDDDYDVKVFAYWGQGTMVTVSS
VL: DIVMTQSPDSLAVSLGERATINCKSSRSLLNSRIRKNYLAWYQQKPGQPPKLLIYWASTRESGVPDRFTGSGSGTDFTLTISSLQAEDVAVYYCKQSYNLLTFGQGTKVEIK
notes: also called humanized 1749 conservative VH and VL
fold over rodent (Forte affinity) (recombinant hMCAM-His [10]): 0.73 fold | fold over rodent (Forte affinity) (recombinant hMCAM-His [11]): 1.09 fold | fold reduction in affinity compared to the rodent (recombinant hMCAM-His [12]): < 2 fold | fold over rodent (Forte affinity) (recombinant hMCAM-His [13]): 0.7 fold | fold over rodent (blocking, laminin/FACS) [14]: 1.8 fold | fold over rodent (blocking, laminin/FACS) [15]: 1.7 fold | fold reduction in potency compared to the rodent [16]: < 2 fold | fold over rodent (competitive ELISA) (recombinant hMCAM-His [17]): 1.1 fold | fold over rodent (competitive ELISA) (recombinant hMCAM-His [18]): 1.28 fold | fold over rodent (competitive ELISA) (recombinant hMCAM-His [19]): 1.46 fold | IC50 (read off the curve) [20]: ~0.4 µg/mL

B3: h1749VH1 + h1749VL1 (antibody, human IgG1, V domains shown)
VH: EVQLVESGGGLVQPGGSLRLSCAASGFTFSSYIMSWVRQAPGKGLEWVATISSGGSSTYYPDSVKGRFTISRDNAKNSLYLQMNSLRAEDTAVYYCTRDDDYDVKVFAYWGQGTMVTVSS
VL: DIVMTQSPDSLAVSLGERATINCKSSRSLLNSRIRKNYLAWYQQKPGQPPKLLIYWASTRESGVPDRFSGSGSGTDFTLTISSLQAEDVAVYYCKQSYNLLTFGQGTKVEIK
notes: also called humanized 1749 standard VH and VL
fold over rodent (Forte affinity) (recombinant hMCAM-His [10]): 2.5 fold | fold over rodent (Forte affinity) (recombinant hMCAM-His [11]): 2.41 fold | fold reduction in affinity compared to the rodent (recombinant hMCAM-His [12]): < 2 fold | fold over rodent (Forte affinity) (recombinant hMCAM-His [13]): 2.5 fold | fold over rodent (blocking, laminin/FACS) [14]: 1.4 fold | fold over rodent (blocking, laminin/FACS) [15]: 1.4 fold | fold reduction in potency compared to the rodent [16]: < 2 fold | fold over rodent (competitive ELISA) (recombinant hMCAM-His [17]): 1 fold | fold over rodent (competitive ELISA) (recombinant hMCAM-His [18]): 1.26 fold | fold over rodent (competitive ELISA) (recombinant hMCAM-His [19]): 1.35 fold

B4: h2120_VH3 + h2120_VL3 (antibody, human IgG1, V domains shown)
VH: QVTLKESGPVLVKPTETLTLTCTVSGFSLTSSGVSWVRQPPGKALEWIAAISSGGTTYYNSAFKSRLTISRDTSKSQVVLTMTNMDPVDTATYYCARRYGYGWYFDFWGQGTLVTVSS
VL: DIQMTQSPSSLSASVGDRVTINCKASQNIYNSLAWYQQKPGKAPKVLIFNANSLQTGIPSRFSGSGSGTDFTLTISSLQPEDFATYYCQQFYSGYTFGQGTKLEIK
fold reduction in affinity as measured by ForteBio (recombinant hMCAM-His [21]): > 5 fold | fold over rodent (Forte affinity) (recombinant hMCAM-His [22]): 16.1 fold | fold over rodent (competitive ELISA) (recombinant hMCAM-His [23]): 3.47 fold
